Molecular target: T1, Mcl-1 (Mus musculus, UniProt P97287)
T1 construct: GST (cleaved yes); made in house; host or cells: E. coli
Experiment: Phage ELISA (titration and competition) of phage-displayed BH3 domains
Assay type: binding
Details: Bak BH3 mutants; from Table 4e
Excerpt: In order to create a FLAG-tagged form of the sequence, an oligonucleotide encoding the FLAG epitope was employed to loop-in the required sequence at the N-terminus of the peptide sequences, already fused to gene 3 as described above, using the Kunkel mutagenesis method (Kunkel et al. Methods Enzymol 204:125-139, 1991). For the alanine scanning constructs and other point mutations of the BimBH3 or other BH3 sequence, oligonucleotides with the desired codon mismatch were employed in Kunkel mutagenesis reactions on the FLAG-BimBH3 or FLAG-BadBH3 template. […]
All ELISA's were performed as described previously (Fairlie et al. J Biol Chem 279:2125-2134, 2004). […] Following washing with PBS/Tween, bound phage were detected using a horseradish peroxidase-conjugated anti-M13 antibody. […]
In an initial assay, the BimBH3 and other BH3 phage were tested for their ability to bind directly to immobilised Bcl-xL and Mcl-1. […] The specificity of the interactions were further assessed using a competition assay in which phage binding to the immobilised protein was competed with the corresponding recombinant protein in solution. The IC50 values obtained are as presented in Table 3 and were very similar to those determined with BimBH3 and BadBH3 synthetic peptides as measured by surface plasmon resonance on a BIAcore instrument (Chen et al. 2005 supra) and using isothermal calorimetry (unpublished data). […]

T1 sequence (P97287 152-308 limits assumed): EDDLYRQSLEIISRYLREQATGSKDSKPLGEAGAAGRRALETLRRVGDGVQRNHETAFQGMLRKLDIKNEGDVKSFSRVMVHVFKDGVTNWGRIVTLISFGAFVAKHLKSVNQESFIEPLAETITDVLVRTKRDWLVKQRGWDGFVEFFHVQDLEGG

| Substance | selectivity among pro-survival proteins, in words |
| --- | --- |
| I19A (PSSTMGQVGRQLAIIGDDANRRYDSE) [Bim I19A] | selective for Mcl-1 |
| V8A (PSSTMGQAGRQLAIIGDDINRRYDSE) [Bim V8A] | selective for Mcl-1 |
